The values below come from IntAct's records for PubMed 16803958.

The labels stand for the following.
B1: Protein CBFA2T1 (Homo sapiens), Q06455-4 (parent)
chain: MPDSPVDVKTQSRLTPPTMPPPPTTQGAPRTSSFTPTTLTNGTSHSPTALNGAPSPPNGFSNGPSSSSSSSLANQQLPPACGARQLSKLKRFLTTLQQFGNDISPEIGERVRTLVLGLVNSTLTIEEFHSKLQEATNFPLRPFVIPFLKANLPLLQRELLHCARLAKQNPAQYLAQHEQLLLDASTTSPVDSSELLLDVNENGKRRTPDRTKENGFDREPLHSEHPSKRPCTISPGQRYSPNNGLSYQPNGLPHPTPPPPQHYRLDDMAIAHHYRDSYRHPSHRDLRDRNRPMGLHGTRQEEMIDHRLTDREWAEEWKHLDHLLNCIMDMVEKTRRSLTVLRRCQEADREELNYWIRRYSDAEDLKKGGGSSSSHSRQQSPVNPDPVALDAHREFLHRPASGYVPEEIWKKAEEAVNEVKRQAMTELQKAVSEAERKAHDMITTERAKMERTVAEAKRQAAEDALAVINQQEDSSESCWNCGRKASETCSGCNTARYCGSFCQHKDWEKHHHICGQTLQAQQQGDTPAVSSSVTPNSGAGSPMDTPPAATPRSTTPGTPSTIETTPR

In this assay the parent is B1. The note with it: with TCF12, Q99081-3.
Chain of TCF12, Q99081-3 (Q99081 other isoform, or with tags, fused parts or gaps): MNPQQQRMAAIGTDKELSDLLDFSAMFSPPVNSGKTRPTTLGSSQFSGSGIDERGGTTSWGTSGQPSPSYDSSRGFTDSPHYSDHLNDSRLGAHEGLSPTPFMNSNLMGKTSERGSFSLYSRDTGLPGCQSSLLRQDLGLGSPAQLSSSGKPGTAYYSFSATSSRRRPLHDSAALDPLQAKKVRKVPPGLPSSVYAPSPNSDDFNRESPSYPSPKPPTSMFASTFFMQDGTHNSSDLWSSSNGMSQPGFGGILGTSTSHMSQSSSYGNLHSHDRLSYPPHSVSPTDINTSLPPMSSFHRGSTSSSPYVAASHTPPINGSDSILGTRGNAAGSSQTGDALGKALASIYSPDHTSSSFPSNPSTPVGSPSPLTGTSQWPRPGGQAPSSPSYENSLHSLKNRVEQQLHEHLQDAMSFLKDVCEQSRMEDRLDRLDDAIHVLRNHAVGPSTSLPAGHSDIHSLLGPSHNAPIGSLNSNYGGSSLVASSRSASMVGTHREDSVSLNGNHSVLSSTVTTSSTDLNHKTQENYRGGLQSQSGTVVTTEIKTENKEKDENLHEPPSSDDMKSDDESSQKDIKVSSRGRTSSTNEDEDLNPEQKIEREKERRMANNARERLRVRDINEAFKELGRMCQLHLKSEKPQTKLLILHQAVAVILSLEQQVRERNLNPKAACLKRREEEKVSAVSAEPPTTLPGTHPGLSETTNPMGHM
For the variant R141D, the “effect of a mutation on the interaction” value is given as “disrupting interaction strength”.

For the variant R141A, the “effect of a mutation on the interaction” value is recorded as “disrupting interaction strength”.

With R91D, the “effect of a mutation on the interaction” value was “disrupting interaction strength”.

For F92A, the “effect of a mutation on the interaction” value was “disrupting interaction strength”.

Take F92A;F147A: the “effect of a mutation on the interaction” value is given as “disrupting interaction strength”.

Turning to L89A, the “effect of a mutation on the interaction” value is recorded as “decreasing interaction strength”.

For K88D, the “effect of a mutation on the interaction” value is on record as “disrupting interaction strength”.

As to K88A, the “effect of a mutation on the interaction” value is “disrupting interaction strength”.

In the case of F147A, the “effect of a mutation on the interaction” value is listed as “disrupting interaction strength”.

Regarding L96A, the “effect of a mutation on the interaction” value is on record as “decreasing interaction strength”.

Take L89A;R141D: the “effect of a mutation on the interaction” value is given as “disrupting interaction strength”.
